The record followed here is IntAct's records for PubMed 18423202.

B1: Regulator of nonsense transcripts 1 (Homo sapiens), Q92900-2 (parent)
chain: MSVEAYGPSSQTLTFLDTEEAELLGADTQGSEFEFTDFTLPSQTQTPPGGPGGPGGGGAGGPGGAGAGAAAGQLDAQVGPEGILQNGAVDDSVAKTSQLLAELNFEEDEEDTYYTKDLPIHACSYCGIHDPACVVYCNTSKKWFCNGRGNTSGSHIVNHLVRAKCKEVTLHKDGPLGETVLECYNCGCRNVFLLGFIPAKADSVVVLLCRQPCASQSSLKDINWDSSQWQPLIQDRCFLSWLVKIPSEQEQLRARQITAQQINKLEELWKENPSATLEDLEKPGVDEEPQHVLLRYEDAYQYQNIFGPLVKLEADYDKKLKESQTQDNITVRWDLGLNKKRIAYFTLPKTDSDMRLMQGDEICLRYKGDLAPLWKGIGHVIKVPDNYGDEIAIELRSSVGAPVEVTHNFQVDFVWKSTSFDRMQSALKTFAVDETSVSGYIYHKLLGHEVEDVIIKCQLPKRFTAQGLPDLNHSQVYAVKTVLQRPLSLIQGPPGTGKTVTSATIVYHLARQGNGPVLVCAPSNIAVDQLTEKIHQTGLKVVRLCAKSREAIDSPVSFLALHNQIRNMDSMPELQKLQQLKDETGELSSADEKRYRALKRTAERELLMNADVICCTCVGAGDPRLAKMQFRSILIDESTQATEPECMVPVVLGAKQLILVGDHCQLGPVVMCKKAAKAGLSQSLFERLVVLGIRPIRLQVQYRMHPALSAFPSNIFYEGSLQNGVTAADRVKKGFDFQWPQPDKPMFFYVTQGQEEIASSGTSYLNRTEAANVEKITTKLLKAGAKPDQIGIITPYEGQRSYLVQYMQFSGSLHTKLYQEVEIASVDAFQGREKDFIILSCVRANEHQGIGFLNDPRRLNVALTRARYGVIIVGNPKALSKQPLWNHLLNYYKEQKVLVEGPLNNLRESLMQFSKPRKLVNTINPGARFMTTAMYDAREAIIPGSVYDRSSQGRPSSMYFQTHDQIGMISAGPSHVAAMNIPIPFNLVMPPMPPPGYFGQANGPAAGRGTPKGKTGRGGRQKNRFGLPGPSQTNLPNSQASQDVASQPFSQGALTQGYISMSQPSQMSQPGLSQPELSQDSYLGDEFKSQIDVALSQDSTYQGERAYQHGGVTGLSQY

Variants of B1 are the subject of one assay. Conditions: with eif3a_human EIF3A.
Consider G495R;G497E, for which the “effect of a mutation on the interaction” value was “increasing interaction”.

The variants in the next assay derive from B1. Conditions: with eif3a_human EIF3A. This is another data set of the same source.
G495R;G497E: the “effect of a mutation on the interaction” value is reported as “increasing interaction”.
